Assay results reported in PMC10686824, “Bacterial cGAS senses a viral RNA to initiate immunity”.

T1: His6-MBP-Ssc-CdnE03 (UniProt P0DXA6 1-324)
T1 sequence: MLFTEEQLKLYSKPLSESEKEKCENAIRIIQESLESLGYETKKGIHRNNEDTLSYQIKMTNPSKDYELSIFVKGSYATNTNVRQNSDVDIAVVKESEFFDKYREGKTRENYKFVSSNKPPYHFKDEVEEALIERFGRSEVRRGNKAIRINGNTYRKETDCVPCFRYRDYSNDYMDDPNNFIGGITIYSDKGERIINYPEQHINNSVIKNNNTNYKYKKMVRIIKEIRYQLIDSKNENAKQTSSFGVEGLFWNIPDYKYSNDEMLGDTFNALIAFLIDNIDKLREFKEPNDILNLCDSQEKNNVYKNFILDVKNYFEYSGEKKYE

B1: cabRNA PhiJ1/2 (34 nt) (structured_RNA)
RNA: GAAUGUUAUGGCAAUGCUACUAAGUCAGCUGUGC
B2: cabRNA PhiJ4 (49 nt) (structured_RNA)
RNA: UUCCGGAAGAUGAUUAGUCAUGUAUGAAAUACUUGAUCUAAAAAAUAAA
B3: 80-nt RNA from 80alpha-vir(cabRNA100) (structured_RNA)
RNA: AUGGUGCGUAUAUCGACAAAAAAGAAAUUACUCAGAAGAAUAUUGAGAUUAAUAUUGGUGAGUACGAUGACGAAAGUUAA
B4: 200-nt RNA from 80alpha-vir(cabRNA57) (structured_RNA)
RNA: AGAGGAGAACCUCAAGAGGCUUACAGUAAGAAAUAUGACCAUUUAAACGAUGAAGUGGAAAAAGAGGUUACUUACACAAUCACACCAACUUUUGAAGAGCGUCAGAGAUCUAUUGACCACAUACUAAAAGUUCAUGGUGCGUAUAUCGACAAAAAAGAAAUUACUCAGAAGAAUAUUGAGAUUAAUAUUGGUGAGUACGA

Target: T1, His6-MBP-Ssc-CdnE03
Assay: pull-down; total RNA of infected cells; EMSA: 50 mM CAPSO pH 9.4, 50 mM KCl, 5 mM Mg acetate, 1 mM DTT, 4 C 25 min, 1 uM RNA, 2% agarose in 1x TB; pull-down on cobalt resin, buffer not given in material
Details: protein: recombinant, tags: His6-MBP

Binder	binding result (hairpin (predicted))	binding result
B1	binds	–
B2	binds	–
B3	–	binds
B4	–	binds
